Test results: paper doi:10.1101/2020.10.16.343392 (bioRxiv, 2020)

Target: the molecule itself
Test: crystal structure

B1: EfgA (enhanced formaldehyde growth protein A) from Methylorubrum extorquens PA1 (natural protein)
chain: MHVTIEQAEKAIQAARAKAVELGTQMCIAIVDSGGNLKAFHRMDGAWVGSIDIAQKKAKTAVFFGMKTGQIGALSQPGGSLYGIEHSNQGLITFPGGIPIVDADGEMSGAIGVSGSSVENDDAVALAGASAIGDTELPDHPWRT
  stoichiometry N: 4
